Results on 36 sequences are retold here after the supplement of paper PMC10567573.

This series in a line: protein stability index of a GFP-peptide fusion (GPS, HEK-293T) (PSI 1-6); higher = more stable. Particulars: c terminus: a fixed tail appended.

± gives the standard deviation.
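Further: 24-mer peptide tiles fused after GFP, lentivirally expressed, FACS-sorted into six equal bins by GFP/DsRed ratio, decoded by Illumina sequencing, PSI is the read-weighted mean bin number.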

Regarding ARNIGFKVNSKKMLGKYNTPVSYR [ACSBG2], the protein stability index is, setting by setting: (treatment: DMSO) 2.32 ± 0.37; (treatment: MLN4924 1 uM, 8 h) 2.55 ± 0.14.

In the case of ARPTEVLAGTQLLYAFFTRTHGDM [TRIB3], the protein stability index was 2.43 ± 0.45 (treatment: DMSO) and 2.33 ± 0.38 (treatment: MLN4924 1 uM, 8 h).

For ARRKSELPQDPHTKKALEAHCRAD [PPP2R5C], the protein stability index (treatment: DMSO) stood at 4.68 ± 0.34 and the protein stability index (treatment: MLN4924 1 uM, 8 h) worked out at 5.17 ± 0.12.

Turning to ASCCIDPREDGASVNDQCGFGVLR [TSPAN10], the protein stability index runs as follows: (treatment: DMSO) 3.44 ± 0.14; (treatment: MLN4924 1 uM, 8 h) 3.83 ± 0.31.

For the sequence ASGLTGFIGLEVVAQLFNCMVGLL [ATL3], the protein stability index by setting is: (treatment: DMSO) 2.26 ± 0.16; (treatment: MLN4924 1 uM, 8 h) 2.15 ± 0.1.

In the case of ASKTVFFFFSSPGNNNGTSIEDGQ [BTBD1], the protein stability index runs as follows: (treatment: DMSO) 2.55 ± 1.3; (treatment: MLN4924 1 uM, 8 h) 2.29 ± 0.74.

On to ASLLQPVTPLGTSRWRKISAALPY [NCF4], for which the protein stability index is, setting by setting: (treatment: DMSO) 2.46 ± 0.4; (treatment: MLN4924 1 uM, 8 h) 2.61 ± 0.3.

Consider ATFEKILESELLRGTQYSSLDSLD [PSD2], for which the protein stability index (treatment: DMSO) came out at 2.25 ± 0.23 and the protein stability index (treatment: MLN4924 1 uM, 8 h) came out at 2.41 ± 0.14.

Take ATHILVRQQGNPGHRSIYLALKLP [ADAMTS4]: the protein stability index (treatment: DMSO) was 2.92 ± 0.62 and the protein stability index (treatment: MLN4924 1 uM, 8 h) is 2.1 ± 0.35.

As to ATKQLDFTRKTLAEKKQELDKLRN [SASS6], the protein stability index is, setting by setting: (treatment: DMSO) 4.19 ± 0.26; (treatment: MLN4924 1 uM, 8 h) 4.43 ± 0.24.

In the case of ATYISEVHEHDGHLYLGSFRSPFL [APMAP], the protein stability index is 2.37 ± 0.4 (treatment: DMSO) and 1.97 ± 0.14 (treatment: MLN4924 1 uM, 8 h).

In the case of AVAHKTPRCPGSVNEKLPQREGTG [SMOC2], the protein stability index was found to be 5.13 ± 0.47 (treatment: DMSO) and 5.33 ± 0.12 (treatment: MLN4924 1 uM, 8 h).

AVGKMGFVVTMLKLIQKKLLDKTC [ZER1]: the protein stability index worked out at 2.29 ± 0.64 (treatment: DMSO) and 2.35 ± 0.8 (treatment: MLN4924 1 uM, 8 h).

AVKGSLGSDLGGPLPTDPMLGLAL [TSPAN10]: the protein stability index runs as follows: (treatment: DMSO) 3.16 ± 0.17; (treatment: MLN4924 1 uM, 8 h) 3.06 ± 0.12.

In the case of AVQLRHAWNPEDRSLNVFVKDDDR [SPSB4], the protein stability index by setting is: (treatment: DMSO) 4.21 ± 0.25; (treatment: MLN4924 1 uM, 8 h) 4.24 ± 0.26.

Take AVSTEDLKECLKKQLEFCFSRENL [LARP4]: the protein stability index is 2.65 ± 0.55 (treatment: DMSO) and 3.11 ± 0.68 (treatment: MLN4924 1 uM, 8 h).

Take AVTKDFKLTDKHETVVSYLPLSHI [ACSBG2]: the protein stability index came out at 2.98 ± 0.075 (treatment: DMSO) and 3.08 ± 0.64 (treatment: MLN4924 1 uM, 8 h).

In turn, AVVAAGGGSSGQVTSNGSIGRDPP [CLPTM1] came in with a protein stability index (treatment: DMSO) of 4.75 ± 0.13 and a protein stability index (treatment: MLN4924 1 uM, 8 h) of 4.88 ± 0.26.

For AYACLVCGKYFQGRGLKSHAYIHS [USP39], the protein stability index is, setting by setting: (treatment: DMSO) 2.29 ± 0.27; (treatment: MLN4924 1 uM, 8 h) 2.51 ± 0.52.

For AYIATQGPLAETTEDFWRMLWEHN [PTPRD], the protein stability index (treatment: DMSO) was 2.79 ± 0.46 and the protein stability index (treatment: MLN4924 1 uM, 8 h) is 2.8 ± 0.37.

Regarding AYTHGCILHPELTVDSMIPAYATT [GDAP1], the protein stability index was 2.65 ± 0.15 (treatment: DMSO) and 2.76 ± 0.063 (treatment: MLN4924 1 uM, 8 h).

Turning to CCTHNNSATLSWKQPPLSTVPADG [TRIM9], the protein stability index is, setting by setting: (treatment: DMSO) 3.09 ± 0.073; (treatment: MLN4924 1 uM, 8 h) 3.02 ± 0.088.

In the case of CEDQKQIKKPESFSKQIVLRGKSI [NEUROD6], the protein stability index amounted to 4.7 ± 0.21 (treatment: DMSO) and 4.61 ± 0.21 (treatment: MLN4924 1 uM, 8 h).

Take CHQMGVVHRDLKPENLLLASKCKG [CAMK2B]: the protein stability index is 3.7 ± 0.16 (treatment: DMSO) and 3.84 ± 0.39 (treatment: MLN4924 1 uM, 8 h).

Regarding CLEGSINEHSAHCPHTPEFSVTGG [RPAIN], the protein stability index is, setting by setting: (treatment: DMSO) 4.2 ± 0.41; (treatment: MLN4924 1 uM, 8 h) 4.07 ± 0.21.

Take CLGVHCDFHQGLLSFYNARTKQVL [FSD1]: the protein stability index runs as follows: (treatment: DMSO) 2.42 ± 0.69; (treatment: MLN4924 1 uM, 8 h) 2.27 ± 0.18.

CLTTGDVIAINYNEKIYELRVMET [UFD1]: the protein stability index (treatment: DMSO) is 2.25 ± 0.35 and the protein stability index (treatment: MLN4924 1 uM, 8 h) was found to be 2.04 ± 0.27.

CMAFELATGDYLFEPHSGEDYSRD [SRPK2] gave a protein stability index (treatment: DMSO) of 3.87 ± 0.47 and a protein stability index (treatment: MLN4924 1 uM, 8 h) of 4.12 ± 0.25.

CNLWDSHHPEVPQRILRIMCRLEE [HDAC6] showed a protein stability index (treatment: DMSO) of 2.55 ± 0.16 and a protein stability index (treatment: MLN4924 1 uM, 8 h) of 2.35 ± 0.28.

Consider CQNKCRIALVENIPEGLNYSENAP [PLD5], for which the protein stability index is, setting by setting: (treatment: DMSO) 3.03 ± 0.45; (treatment: MLN4924 1 uM, 8 h) 3.23 ± 0.64.

Turning to CRANRNCPIDQHHRNQCQYCRLKK [NR2F2], the protein stability index is, setting by setting: (treatment: DMSO) 4.2 ± 0.044; (treatment: MLN4924 1 uM, 8 h) 4.39 ± 0.14.

Regarding CSCLSDILRFIYSGAFQWEELEED [RHOBTB3], the protein stability index is, setting by setting: (treatment: DMSO) 2.35 ± 0.41; (treatment: MLN4924 1 uM, 8 h) 1.88 ± 0.34.

For the sequence CSDSDKKCHLWTAMDLGFFVVMGV [CLCN6], the protein stability index worked out at 2.95 ± 0.63 (treatment: DMSO) and 2.97 ± 0.5 (treatment: MLN4924 1 uM, 8 h).

With CSHNLCQACARNILVQTPESESPQ [TRIM9], the protein stability index turned out to be 3.57 ± 0.33 (treatment: DMSO) and 3.85 ± 0.33 (treatment: MLN4924 1 uM, 8 h).

With CTMEPEPVQPGMLIDVCKYLGSLQ [TRIM35], the protein stability index came out at 2.43 ± 0.13 (treatment: DMSO) and 2.41 ± 0.22 (treatment: MLN4924 1 uM, 8 h).

As for CTRPVPRNGGKYCEGRRTRFRSCN [ADAMTS4], the protein stability index by setting is: (treatment: DMSO) 3.79 ± 0.14; (treatment: MLN4924 1 uM, 8 h) 4.12 ± 0.24.
